# Measured values published in IntAct's records for PubMed 20421493.
# B1: Flagellar protein FliT (Salmonella typhimurium), P0A1N2 (parent)
# chain: MTSTVEFINRWQRIALLSQSLLELAQRGEWDLLLQQEVSYLQSIETVMEKQTPPGITRSIQDMVAGYIKQTLDNEQLLKGLLQQRLDELSSLIGQSTRQKSLNNAYGRLSGMLLVPDAPGAS
# partner: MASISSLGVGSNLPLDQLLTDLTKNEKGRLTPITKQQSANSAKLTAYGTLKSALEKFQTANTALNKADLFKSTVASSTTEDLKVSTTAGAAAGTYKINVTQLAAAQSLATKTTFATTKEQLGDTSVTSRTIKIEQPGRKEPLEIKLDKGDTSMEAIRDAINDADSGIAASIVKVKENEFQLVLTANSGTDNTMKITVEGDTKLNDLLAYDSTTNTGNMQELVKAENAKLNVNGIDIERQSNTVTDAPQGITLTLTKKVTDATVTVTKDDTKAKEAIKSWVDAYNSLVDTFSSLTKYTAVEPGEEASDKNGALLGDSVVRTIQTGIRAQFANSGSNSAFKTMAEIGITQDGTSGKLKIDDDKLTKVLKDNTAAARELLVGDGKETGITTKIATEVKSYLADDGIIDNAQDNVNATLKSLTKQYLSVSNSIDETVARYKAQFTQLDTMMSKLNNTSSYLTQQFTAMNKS
# Variants of: B1
# Settings: with flid_salty fliD
row,Variant,effect of a mutation on the interaction
1,E75A,decreasing interaction strength
2,K79A,disrupting interaction strength
